Measurements from the nanobody polyreactivity screen of Harvey et al. (2022).

Experiment: yeast display, Sf9 membrane polyspecificity reagent, FACS + sequencing; frameworks hold sequencing errors
Method in brief: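 A synthetic nanobody library was expressed on Saccharomyces cerevisiae BJ5465 by galactose induction for 36–48 hours. The library was stained for 1 hour at 4 °C with 10% biotinylated, detergent-solubilized Sf9 membrane reagent and enriched with streptavidin microbeads before FACS. Low and high (top ~1%) gates were set on anti-HA fluorescence for expression and streptavidin fluorescence for reagent binding, and each polyreactivity label reflects the gate of origin.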

| Sequence | polyreactivity (PSR sort gate) |
| --- | --- |
| QVQLVESGGGLVQAGGSLRLSCAASGRIFRPYAMGWYRQAPGKERELVAAITRGGSTKYADSVKGRFTISRDNAKNTVYLQMNSLKPEDTAVYYCAARGWSTGTSYRSAWWDYYYWGQGTQVTVSS | high polyreactivity |
| QVQLVESGGGLVQAGGSLRLSCAASGRIFRQNAMGWYRQAPGKERELVAAISRGGGSTYYADSVKGRFTISRDNAKNTVYLQMNSLKPDDTAVYYCAAFQAHQTAFDYWGQGTQVTVSS | high polyreactivity |
| QVQLVESGGGLVQAGGSLRLSCAASGRIFRRNTMGWYRQAPGKEREVVAAITSSGGSTYADSVKGRFTISRDNAKNTVYLQMNSLKPEDTAVYYCATYVAYHRGYRTYDHWGQGTQVTVSS | low polyreactivity |
| QVQLVESGGGLVQAGGSLRLSCAASGRIFRRYALGLYRQAPGKEREFVAAISYGGGSTYYADSVKGRFTISRDNAKNTVYLQMNRLKPEDTAVYFCNADVPKSLLLYYPWGYGYWGQGTQVTVSS | low polyreactivity |
| QVQLVESGGGLVQAGGSLRLSCAASGRIFRRYAMGWNRQAPGKEMELVAAISRSGGSTYYADSVKGRFTISRDNAKNTVYLQMNSLKPEDTAVYYCNRRYITYNYDYWGQGTQVTVSS | high polyreactivity |
| QVQLVESGGGLVQAGGSLRLSCAASGRIFRRYVMGWYRPAPGKERELVATINSNGGSTYYADSVKGRFTISRDNAKNTVYLQMNSLKPEDTAVYYCAAYYRWIGGRYTPYYYWGQATQVTVSS | high polyreactivity |
| QVQLVESGGGLVQAGGSLRLSCAASGRIFRSNAKGWYRQAPRKERELVAAISGGGSTYYADSVKGRFTISRDNAKNTVYLQMNSLKPEDTAVYYCAAGRHLAYWSRDYYYWGQGTQVTVSS | high polyreactivity |
| QVQLVESGGGLVQAGGSLRLSCAASGRIFRSNAMGWYRQAPGKERELVAAISQRGGSTYYADSVKGRFTISRDNAKNTVYLQINSLKPEDTAVYYCNARGRYYSGDNWGQGTQVTVSS | high polyreactivity |
| QVQLVESGGGLVQAGGSLRLSCAASGRIFRSNAMGWYRQAPGKERELVATISRRGGSTYYADSVKGRFTISRDNAKNTVYLQMNSLKPEDTAVYYCNTRNSGSLDLYNTMDYWGQGTQVTVSS | high polyreactivity |
| QVQLVESGGGLVQAGGSLRLSCAASGRIFRSNAMGWYRQAPWKERELVATITSSGGRTYYADSVKGRFTISRDNAKNTVYLQMNSLKPEDTAVYYCIAQQRTRGQKAQWVRDEYWGQGTQVTVSS | low polyreactivity |
| QVQLVESGGGLVQAGGSLRLSCAASGRIFRSYAMGGYRQAPGKERELVAAMTSGGSTNYADSVKGRFTISRDNAKNTVYLQMNSLKPEDTAVYYCNADRWKSGYWRYDYWGQGTQVTVSS | low polyreactivity |
| QVQLVESGGGLVQAGGSLRLSCAASGRIFRSYAMGWYRQAPGKERELVAAISYSGGSTYYADSVKGRFTISRDNAKNTVYLQMNSLKPEDTAVYYCAALPGERKYIYYGYDYWGQGTQVTVSS | high polyreactivity |
| QVQLVESGGGLVQAGGSLRLSCAASGRIFRTNAMGWYRQAPGKDRELVAAISRSGGSTYYADSVKGRFTISRDNAKNTVYLQMNSLKPEDTAVYYCATRVGKILTTKYGYWGQGTQVTVSS | high polyreactivity |
| QVQLVESGGGLVQAGGSLRLSCAASGRIFRTYAMGWSRQAPGKERELVAAISGSGGRTYYADSVKGRFTISRDNAKNTVYLQMNSLKPEDTAVYYCAKYVSIVRYGSTTNYDYWGQGTQVTVSS | high polyreactivity |
| QVQLVESGGGLVQAGGSLRLSCAASGRIFRTYAMGWYRPAPGKERELVAAISGSGGRTYYADSVKGRFTISRDNAKNTVYLQMNSLKPEDTAVYYCANYVSIVRYGSTTNYDYWGQGTQVTVSS | high polyreactivity |
| QVQLVESGGGLVQAGGSLRLSCAASGRIFRVNAMGWYRQAPGKDREFVAAITASSGRTSYADSVKGRFTISRDNAQNTVYLQMNSLKPEDTAVYYCNAAVSQFSHRWRRRITFDYWGQGTQVTVSS | low polyreactivity |
| QVQLVESGGGLVQAGGSLRLSCAASGRIFRVNAMGWYRQAPGKERELVASITKSTGSTYYADSVKGRFTISRDNAKNTVYLQMNSLKPEDTAVYYCAKAASYPVRAFYYWGQGTQVTVSS | high polyreactivity |
| QVQLVESGGGLVQAGGSLRLSCAASGRIFRVNAMGWYRQAPGKERELVATITGSGGSTYYADSVKGRFTISRDNAKNTVHLQMNSLKPEDTAVYYCAVDRGRGSTYKYDYWGQGTQVTVSS | low polyreactivity |
| QVQLVESGGGLVQAGGSLRLSCAASGRIFRVYAMGWSRQAPGKERELVAAIRWTGGSTYYADSVKGRFKISRDNAKNTVYIQIHSLKAEDTAVSYCAAGRYYSDGSRTIYDYWGQGTQVTGSS | high polyreactivity |
| QVQLVESGGGLVQAGGSLRLSCAASGRIFRVYAMGWYRQAPGKERELVAAISSSGSSTYYADSVKGRFTISRDNAKYTVYLQMNSLKPEDTAVYYCAARGYDISSRYDYWGQGTQVTVSS | high polyreactivity |
| QVQLVESGGGLVQAGGSLRLSCAASGRIFRWYAMGWYRPAPGKERELVAAISRSGTSTYYADSVKGRFTISRDNAKNTVYLQMNSLKPEDTAVYDCAADRTGRIVLSPTDEMDYWGQGTQVTVSS | low polyreactivity |
| QVQLVESGGGLVQAGGSLRLSCAASGRIFRYNAMGGYRQAPGKERELVAAITWRGGSTYYADSVKGRFTISRDNAKNTVYLQMNSLKPEDTAVYYCNKVDSLTFEYDYWGQGTQVTVSS | high polyreactivity |

| Sequence | polyreactivity (PSR sort gate) |
| --- | --- |
| QVQLVESGGGLVQAGGSLRLSCAASGRIFRYNAMGLYRQAPGKERELVAAISRSGGSTYYADSVKGRFTISRDNAKNTVYLQMNSLKPEDTAVYYCAVRRDGSGGNLDYWGQGTQVTVSS | high polyreactivity |
| QVQLVESGGGLVQAGGSLRLSCAASGRIFRYNAMGWYRQAPGKEREFVAAISWSGDRTYYADSVKGRFTISRDNAKNTGYLQMNSLKTEDTAVYYCADVPATSYPRRYVYAYYYWGQGTQVTVSS | high polyreactivity |
| QVQLVESGGGLVQAGGSLRLSCAASGRIFRYNAMGWYRQAPGKERELVAAISSGGSTNYADSVKGRFTTSRDNAKNTVYLQMNSLKPEDTAVYYCNAESVHRYPGWGYDYWGQGTQVTVSS | low polyreactivity |
| QVQLVESGGGLVQAGGSLRLSCAASGRIFRYNAMGWYRQAPGKERELVAALTSGGSTNYADSVKGRFTISRDNAKNTVYLQMNSLKPEDTAVYYCAVTGYRPYAYRRRYPYDYWGQGTQVTVSS | high polyreactivity |
| QVQLVESGGGLVQAGGSLRLSCAASGRIFRYNAMGWYRQPPGKEREFVARISVITGRTYYADSVKGRFTISRDNAKNTVYLQMNSLKPEDTAVYFCAADAGYNYRYLLRGDYWGQGTQVTVSS | high polyreactivity |
| QVQLVESGGGLVQAGGSLRLSCAASGRIFRYNTMGRNRHAPGKEREFVAAISYRGASTYYADSVKGRFTISRDNAKNNVYLQMNSLKPEDTAVYYCAAVTISKGFYPYDYWGQGTQVSVSS | high polyreactivity |
| QVQLVESGGGLVQAGGSLRLSCAASGRIFRYSAMGWYRQAPGKERELVAAISSDGSTDYADSVKGRFTISRDNAKNTVYLQMNSLKPEDTAVYYCAASVVSYGHDYWGQGTQVTVSS | low polyreactivity |
| QVQLVESGGGLVQAGGSLRLSCAASGRIFRYYAMGWYRQAPGKEREFVAAITYIGGSTYYADSVKGRFTISRDNAKNTVYLQMNSLKPEDTAVYWGQGTQVTVSS | low polyreactivity |
| QVQLVESGGGLVQAGGSLRLSCAASGRIFRYYAMGWYRQAPGKERELVAAIRSDDSTNYADSVKGRFTISRDNAKNTVYLQMNSLKPEDTAVYYCAAVKAYYGGSRSYYYWGQGTQVTVSS | high polyreactivity |
| QVQLVESGGGLVQAGGSLRLSCAASGRIFRYYAMGWYRQAPGKERELVAAISGGRTYYADSVKGRFTISRDNAKNTVYLQMNSLKPEDTAVYYCNAGGIVWTGYWYDYDYWGQGTQVTVSS | high polyreactivity |
| QVQLVESGGGLVQAGGSLRLSCAASGRIFRYYAMGWYRQAPGKERELVAAITAGGGTTYYADSVKGRFTISSDNAKNTVYLQMNSLKPEDTAVYYCAKDGRYYSHYNYWGQGTQVTVSS | high polyreactivity |
| QVQLVESGGGLVQAGGSLRLSCAASGRIFRYYAMGWYRQAPGKERELVAAITQRGGSTYADSVKGRFTISRDNANNTVYLQMNSLKPEDTAVFYCAYRGSFLYDYWGQGTQVTVSS | low polyreactivity |
| QVQLVESGGGLVQAGGSLRLSCAASGRIFRYYAMGWYRQAPGKERELVARITWSGGRTYYADSVKGRFTISRDNAKNTVYLQMNSLKPEDTAVYYCNARATSGGDYWGQGTQVTVSS | high polyreactivity |
| QVQLVESGGGLVQAGGSLRLSCAASGRIFRYYAMGWYRQAPGKERELVASISNGGGTYYADSVKGRFTISRDNAKNTVYLQMNSLKPEDTAVYYCNARKWSQYIVPLRDYWGQGTQVTVSS | high polyreactivity |
| QVQLVESGGGLVQAGGSLRLSCAASGRIFRYYAMGWYRQAPGKERELVATISRSGGSTFYADSVKGRFTISRDNAKNTVYLQMNSLKPEDTAVYYCNARYQTGGYGYWGQGTQVTVSS | high polyreactivity |
| QVQLVESGGGLVQAGGSLRLSCAASGRIFRYYAMGWYRQAPGKERELVAVINWSGGSTYYADSVKGRFTISRDNAKNTVYFQMNSLKPEDTAVYYCNVYSVYPQFNYWGQGTQVTVSS | high polyreactivity |
| QVQLVESGGGLVQAGGSLRLSCAASGRIFRYYAMGWYRQAPGKETELVAAINWSGGSTYYADSVKGRFTISRDNAKNTVYLQMNSLKPEDTAVYYCNRRAYIRYDSSSLDYWGQGTQVTVSS | low polyreactivity |
| QVQLVESGGGLVQAGGSLRLSCAASGRIFRYYAMGWYRQAPGQERELVAAISWRGGITNYADSVKGRFTISRDNAKNTVYLQMNSLKPEDTAVYYCNRVQGPDSQAKTSMYYWGQGTQVTVSS | high polyreactivity |
| QVQLVESGGGLVQAGGSLRLSCAASGRIFRYYAMGWYRQPPGKERELVAAISSSGGRTYYADSVKGRFTISRDNAKNTVYLQMNSLKPEDTAVYYCAADAPNFGLYRDKDYDYWGQGTQVTVSS | high polyreactivity |
| QVQLVESGGGLVQAGGSLRLSCAASGRIFRYYTMGWYRQAPGKERELVAAITWSGGSTYYADSVKGRFTISRDNAKNTVYLQMNSLKPEDTAVYYCAVVYSPSMDYWGQGTQVTVSS | high polyreactivity |
| QVQLVESGGGLVQAGGSLRLSCAASGRIFRYYVMGWYRQAPGKERELVAAITSGGSTYYADSVKGRFTISRDNAKNTVYLQMNSLKPEDTAVYYCAAETTLPIFYYTQVNYWGQGTQVTVSS | low polyreactivity |
